Laboratory results from patent US20180280532A1.

Biological target: human Trop-2 (human) (UniProt P09758)
Assay: cell binding assay, cell line not named

Chain of human Trop-2 (human) (P09758 27-323): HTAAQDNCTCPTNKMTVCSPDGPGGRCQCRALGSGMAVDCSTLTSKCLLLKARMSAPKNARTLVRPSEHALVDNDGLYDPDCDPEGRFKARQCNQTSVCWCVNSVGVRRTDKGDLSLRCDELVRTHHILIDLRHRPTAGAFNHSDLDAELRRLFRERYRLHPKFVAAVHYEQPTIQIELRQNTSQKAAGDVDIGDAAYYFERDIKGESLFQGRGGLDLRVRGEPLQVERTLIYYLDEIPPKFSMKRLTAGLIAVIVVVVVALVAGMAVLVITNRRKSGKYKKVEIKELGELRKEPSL

Kd: 1.2 nM
Substance: hRS7-CL2A-SN-38 (antibody)
